± gives the uncertainty stated by the source.
Test: amyloid nucleation score (Sup35N fusion, yeast selection) (log enrichment); library NNK2; higher = more nucleation; inactive = no reads after selection
In short: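 Random libraries were run with three technical output replicates. In each, psi-negative yeast expressing Sup35N fused to peptides of 20 random codons were induced 24 hours with 100 μM copper sulfate and grown 7 days at 30°C on medium lacking adenine and uracil, and input and output plasmid inserts were Illumina-sequenced. The nucleation score is the DiMSum log enrichment of output over input reads, centred on the mode score of non-aggregating sequences, and sequences under 100 input reads were excluded.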

| Substance | amyloid nucleation score |
| --- | --- |
| FPIFKHDWLFYWCTPSIKGR | -1.06 ± 0.31 |
| FPNKITVIPSHTSRDNVNTL | 0.261 ± 0.49 |
| FPRDILVS | -0.13 ± 0.76 |
| FPYIFIWFYGSVGLWRRETL | 0.127 ± 0.79 |
| FQFRCCTM | 9.232 ± 0.024 |
| FQMYTISLRRLVNNKSYARV | 0.319 ± 0.8 |
| FQSVLCYE | -0.708 ± 0.54 |
| FQWQLMVFSADEFQNMAHMI | 0.182 ± 0.79 |
| FQYENNVDNG | -1.75 ± 0.62 |
| FRAFLQITLILNCGSSASDV | 3.45 ± 0.11 |
| FRCAE | 3.84 ± 0.091 |
| FRCLTSSANISISTVWYVGH | 4.61 ± 0.09 |
| FRDCYCRVVAPYDLHFVCTW | 0.573 ± 0.15 |
| FRGDILRFL | inactive |
| FRGGSCYIVVWA | 6.573 ± 0.04 |
| FRGIGWAC | 0.907 ± 0.47 |
| FRGITASYEPIGGARMSARE | -0.001 ± 0.62 |
| FRGLYRARNGVIKRMGLGWH | 0.645 ± 0.47 |
| FRGTCYMAIVDYLCNTFEGP | 1.37 ± 0.11 |
| FRIGFVFCVSYCRECRN | 0.065 ± 1.1 |
| FRLRMRSGYSARLSRFFCPL | 2.51 ± 0.077 |
| FRMWGLC | 0.43 ± 0.36 |
| FRSVFDKFLRYVFSFDVY | -0.984 ± 0.76 |
| FRVMQNFHQSYGHYKWVFHF | 5.57 ± 0.057 |
| FRWCKRMGLCNLVNDLGCDW | 0.446 ± 0.64 |
| FRYCAGLMTYRLEFG | 2.49 ± 0.068 |

| Substance | amyloid nucleation score |
| --- | --- |
| FSFLGDPKNERTVSWVMGHR | 0.478 ± 0.32 |
| FSFRVMRHSKKGK | inactive |
| FSGHILGRPFDGRSLVCMS | inactive |
| FSIVFGI | 1.17 ± 0.15 |
| FSKHCYIIMYDISRSKTSIF | -0.525 ± 1.1 |
| FSMQSMSKGYVLRPLGMA | -0.098 ± 0.3 |
| FSQGYWLLMA | 0.305 ± 0.23 |
| FSQNIVSSRVVTYKMNCNGM | 3.72 ± 0.044 |
| FSRYNVCYFRVAKGNARLPF | -0.541 ± 0.76 |
| FSVRLMAVRQGRLTAVGKSD | 0.331 ± 0.42 |
| FSYLAI | -0.896 ± 0.61 |
| FTCNACGYERSSVAYRNNPL | -0.22 ± 1.1 |
| FTDCHWSDLLRSFVAWYDIV | 0.918 ± 0.58 |
| FTFIGGYVSYYRCIPIGILP | 0.33 ± 0.74 |
| FTLALSYITRTKSTHAC | -0.27 ± 1.1 |
| FTLLSMNRSGFIIRVPDAV | 0.035 ± 0.24 |
| FTSLGMQLCYWHRISLCVSW | -1.05 ± 0.61 |
| FTTPVSFSFVLRLITTPRTY | -1.29 ± 0.75 |
| FVCGGILFLLCFLE | 2.56 ± 0.12 |
| FVFELGKWHCELFWYELCLS | inactive |
| FVFHWLFVSSRACILHPVVW | 0.604 ± 0.3 |
| FVFTLIWGHSSKLSESVSFL | inactive |
| FVHVPPILGAAVTVRAASPK | 0.284 ± 1.1 |
| FVIVNN | -0.658 ± 1 |
| FVKYRSLGKWVLRVTGVMVD | inactive |
| FVQAVDVVWFGILLKVLFRS | inactive |

| Substance | amyloid nucleation score |
| --- | --- |
| FVRLTRIVESGYYDIFGKIK | -0.429 ± 0.39 |
| FVSAHRYWCHMTLSAVMGLH | 3.04 ± 0.12 |
| FVSHYHTAHTVEMASSQLTN | 0.503 ± 0.38 |
| FVVESVKVNRSLACF | -0.205 ± 0.45 |
| FVYKTGYVSSVCYGIVVVVD | -0.826 ± 0.5 |
| FWCCANRSLVISLI | -0.907 ± 0.4 |
| FWDRMGLNEEVFQGSLSSAW | inactive |
| FWQVCPLYRSSCIGSGCCIK | 1.78 ± 0.17 |
| FWRVRVFGASLFL | inactive |
| FWSSCSLEVYRGFSFAH | 3 ± 0.083 |
| FWSTTDILVGRTSHTGTVCV | 0.118 ± 0.26 |
| FYCSNSKFW | 3.5 ± 0.074 |
| FYCWTTSDMFVRTSSIESP | 1.09 ± 0.59 |
| FYCYNFFWFL | 6.085 ± 0.033 |
| FYEYTDTASAGPDETLYLRN | 0.022 ± 0.63 |
| FYFWVSDYQLGDMVNIMNLS | -0.184 ± 1.1 |
| FYHRGMMWMYKWGMARYRVC | 0.044 ± 0.44 |
| FYIFPQAFRLWKSLS | inactive |
| FYIGFYSPGLCVRFKFFSAR | -1.85 ± 1.1 |
| FYKLNGKNWSRVKVPHSWLF | inactive |
| FYKLVAGNLANPCANRTCYL | -0.031 ± 1 |
| FYMPLLMYVVAVRPMSGNLV | -0.22 ± 1 |
| FYSLQFLTILLVTFMEATYP | -0.165 ± 0.27 |
| FYTDPALISHTVEIILVLLI | inactive |
| FYTYDLSFMSNYSVLRVLCS | -1.48 ± 0.62 |
| FYVLFGSF | -2.07 ± 0.76 |

| Substance | amyloid nucleation score |
| --- | --- |
| FYVPSS | -0.158 ± 0.63 |
| FYVVALGYKIVLCTMFYMLE | -1.16 ± 0.31 |
| FYVVFLNGVLLDYNDDLYGI | inactive |
| FYYCRALWVYLVTCWHCLSY | -0.864 ± 1.1 |
| GAAFILSIYYQPSTTPPLRA | 2.62 ± 0.084 |
| GAAHDSYMNRWLITWNSKCK | -1.52 ± 0.76 |
| GALRGGVTRLQILRCFFYFW | 0.491 ± 0.74 |
| GASSF | inactive |
| GCGGDKKDFVISFWWEKYFR | -1.74 ± 0.53 |
| GCGSNSDLLHPGIFGLCKLV | -0.3 ± 0.31 |
| GCGVL | -0.91 ± 0.55 |
| GCIAIIDWMNLTLFTLLLSS | -0.375 ± 0.76 |
| GCLLRCDKRGGLRPSW | 0.66 ± 0.24 |
| GCNLFYCLTRSSIETNTSIS | 4.3 ± 0.095 |
| GCVTSGMLMTLIIH | -0.218 ± 0.48 |
| GDFSFCTHLLSYNLRGWPVV | 0.192 ± 0.74 |
| GDKLIEGRASGKGNWILERG | 1.19 ± 0.34 |
| GDYTYRG | 0.773 ± 0.66 |
| GECRRWKFGLWENVPDMSIK | 0.177 ± 0.48 |
| GELDGNRERILRRRGTMDYQ | 2.56 ± 0.091 |
| GELRIYRLGHCVCVSMSLPA | 1.27 ± 0.36 |
| GEMYV | -0.31 ± 1 |
| GEPLNGSAGLVGH | 0.234 ± 0.34 |
| GEQSDFSSSYSYLLWKVWDG | -1.2 ± 0.36 |
| GEYINAWSLNIV | -0.683 ± 0.64 |
| GFCPLVRPSCESFRLQERLV | -0.303 ± 0.63 |

| Substance | amyloid nucleation score |
| --- | --- |
| GFEQRGIRVMFVPYDINFSV | 6.269 ± 0.031 |
| GFIVRMDTMLSSALASYCRL | -0.25 ± 0.63 |
| GFRFLLKLLFGFKKV | inactive |
| GFSLC | 0.541 ± 0.66 |
| GFSSNLVVLKKPS | -0.249 ± 1.1 |
| GFVTDFIIKSI | -1.07 ± 0.64 |
| GFWVDQNSDPNWVSQAPDFM | inactive |
| GFYIKVFNSEWYALNLDVRL | 4.67 ± 0.075 |
| GGCVYSVTLFFTWTEWGKAK | -0.516 ± 0.79 |
| GGDSECGYNGVFVGYAVFWC | 0.128 ± 0.29 |
| GGGNCKKGYGCDVDCYESEG | -0.735 ± 0.56 |
| GGLIE | -0.817 ± 1.1 |
| GGLWTGLVSASKEFSK | inactive |
| GGPCDRGTFMMCDPWSFSLL | 0.513 ± 0.39 |
| GGYIQRNNDNRFAEQV | inactive |
| GHFAF | -0.159 ± 1.1 |
| GHFRFEHCVSVSLSSIFSNE | 1.55 ± 0.11 |
| GHVTYLVTAPHV | 2.89 ± 0.14 |
| GIFGMC | 0.366 ± 0.56 |
| GIGMRQYMNT | 0.823 ± 0.32 |
| GIIDLHAYLFKVHEWAHPHR | 6.07 ± 0.063 |
| GIIRSWNIRPLEMPKE | 0.176 ± 0.27 |

Source: the supplement of paper PMC12042874
